Data as given in US20240116985A1 (published 2024).
Starred links: 1 amine or outer side, 2 acyl side, 3 side chain; linkers in the order of their positions; H or OH if unused. Positions of bridges follow the written chain, without caps; N, C: chain ends. Non-standard residues stand in square brackets, D forms with d. Primed or numbered codes have the meaning given here. PyrS2″ = (S)-3-amino-1-((pent-4-en-1-yloxy)carbonyl)pyrrolidine-3-carboxylic acid (stapling residue), C=CCCCOC(=O)N1CC[C@@](N[*:1])(C(=O)[*:2])C1; B5(4) = 2,2-bis(4-pentenyl)glycine = 2-amino-2-(pent-4-en-1-yl)hept-6-enoic acid (stitching residue), C=CCCCC(CCCC=C)(N[*:1])C(=O)[*:2]; B5(5) = 2,2-bis(4-pentenyl)glycine, 2-amino-2-(pent-4-en-1-yl)hept-6-enoic acid (stitching residue), C=CCCCC(CCCC=C)(N[*:1])C(=O)[*:2]; B5(21) = 2-amino-2-(pent-4-en-1-yl)hept-6-enoic acid, bis(4-pentenyl)glycine (stitching residue), C=CCCCC(CCCC=C)(N[*:1])C(=O)[*:2]; (NMe2)GlnR(3) = [NMe2]GlnR, N5,N5-dimethyl-L-glutamine, CN(C)C(=O)CC[C@H](N[*:1])C(=O)[*:2]; (NHCyPr)AsnR = N4-cyclopropyl-L-asparagine, O=C(C[C@H](N[*:1])C(=O)[*:2])NC1CC1; (NHiPr)AsnR = N4-isopropyl-L-asparagine, CC(C)NC(=O)C[C@H](N[*:1])C(=O)[*:2]; (NHnPr)AsnR = N4-propyl-L-asparagine, CCCNC(=O)C[C@H](N[*:1])C(=O)[*:2]; (NHEt)AsnR = N4-ethyl-L-asparagine, CCNC(=O)C[C@H](N[*:1])C(=O)[*:2]; Phe(3-COOH) = N[C@@H](Cc1cccc(C(=O)O)c1)C(=O)O; 2F3MeF = Cc1cccc(C[C@H](N[*:1])C(=O)[*:2])c1F; AcLys = CC(=O)NCCCC[C@H](N[*:1])C(=O)[*:2]; Bta = N[C@@H](Cc1csc2ccccc12)C(=O)O; αAllylPro = C=CC[C@@]1(C(=O)O)CCCN1; tBuAla = CC(C)(C)C[C@H](N)C(=O)O; 3Thi = N[C@@H](Cc1ccsc1)C(=O)O; S8 = C=CCCCCCC[C@](C)(N)C(=O)O; Nle = CCCC[C@H](N)C(=O)O; Aib = CC(C)(N)C(=O)O

B1: I-2549 (peptide)
peptide: Ac-[αAllylPro]D[tBuAla][B5(4)]D[Phe(3-COOH)]AAF[AcLys][PyrS2″][2F3MeF][Bta][MorphGln]-NH2
modifications: staple 1-4, 4-11; not fully specified; printed as Ac-PL3-Asp-Npg-B5-Asp-3COOHF-Ala-Ala-Phe-AcLys-PyrS2-2F3MeF-BztA-MorphGln-NH2
B2: I-2548 (peptide)
peptide: Ac-[αAllylPro]D[tBuAla][B5(4)]D[Phe(3-COOH)]AAF[AcLys][PyrS2″][2F3MeF][Bta][MorphGln]-NH2
modifications: staple 1-4, 4-11; not fully specified; printed as Ac-PL3-Asp-Npg-B5-Asp-3COOHF-Ala-Ala-Phe-AcLys-PyrS2-2F3MeF-BztA-MorphGln-NH2
B3: I-2547 (peptide)
peptide: Ac-[αAllylPro]D[tBuAla][B5(4)]D[Phe(3-COOH)]AAF[MorphGln][PyrS2″][2F3MeF][Bta][MorphGln]-NH2
modifications: staple 1-4, 4-11; not fully specified; printed as Ac-PL3-Asp-Npg-B5-Asp-3COOHF-Ala-Ala-Phe-MorphGln-PyrS2-2F3MeF-BztA-MorphGln-NH2
B4: I-549 (peptide)
peptide: XDIXDDAAFNXFXQ
modifications: not fully specified; N-terminal Ac; PL3 at 1; B5 at 4; S8 at 11; 2OMeF at 12; BztA at 13; C-terminal NH2; staples PL3(1)-B5(4) and B5(4)-S8(11) by olefin metathesis
notes: It has the same description as I-550 and is the earlier eluting HPLC peak (staple isomer composition)
B5: I-553 (peptide)
peptide: XDIXDDAAFNXFXH
modifications: not fully specified; N-terminal Ac; PL3 at 1; B5 at 4; S8 at 11; 2OMeF at 12; BztA at 13; C-terminal NH2; staples PL3(1)-B5(4) and B5(4)-S8(11) by olefin metathesis
notes: It has the same description as I-554 and is the earlier eluting HPLC peak (staple isomer composition)
B6: I-559 (peptide)
peptide: XDLXDDAAFQXFXQ
modifications: not fully specified; N-terminal Ac; PL3 at 1; B5 at 4; S8 at 11; BztA at 13; C-terminal NH2; staples PL3(1)-B5(4) and B5(4)-S8(11) by olefin metathesis
notes: It has the same description as I-558 and is the later eluting HPLC peak (staple isomer composition)
B7: I-561 (peptide)
peptide: XDLXDDAAFQXFXH
modifications: not fully specified; N-terminal Ac; PL3 at 1; B5 at 4; S8 at 11; BztA at 13; C-terminal NH2; staples PL3(1)-B5(4) and B5(4)-S8(11) by olefin metathesis
notes: It has the same description as I-560 and is the later eluting HPLC peak (staple isomer composition)
B8: I-554 (peptide)
peptide: XDIXDDAAFNXFXH
modifications: not fully specified; N-terminal Ac; PL3 at 1; B5 at 4; S8 at 11; 2OMeF at 12; BztA at 13; C-terminal NH2; staples PL3(1)-B5(4) and B5(4)-S8(11) by olefin metathesis
B9: I-558 (peptide)
peptide: XDLXDDAAFQXFXQ
modifications: not fully specified; N-terminal Ac; PL3 at 1; B5 at 4; S8 at 11; BztA at 13; C-terminal NH2; staples PL3(1)-B5(4) and B5(4)-S8(11) by olefin metathesis

biological target: T1, B-cat-Halo (UniProt P35222 1-781, HaloTag NanoBRET 618 Ligand bound in the assay); assay: cell-based or functional assay
T1 sequence (looked up): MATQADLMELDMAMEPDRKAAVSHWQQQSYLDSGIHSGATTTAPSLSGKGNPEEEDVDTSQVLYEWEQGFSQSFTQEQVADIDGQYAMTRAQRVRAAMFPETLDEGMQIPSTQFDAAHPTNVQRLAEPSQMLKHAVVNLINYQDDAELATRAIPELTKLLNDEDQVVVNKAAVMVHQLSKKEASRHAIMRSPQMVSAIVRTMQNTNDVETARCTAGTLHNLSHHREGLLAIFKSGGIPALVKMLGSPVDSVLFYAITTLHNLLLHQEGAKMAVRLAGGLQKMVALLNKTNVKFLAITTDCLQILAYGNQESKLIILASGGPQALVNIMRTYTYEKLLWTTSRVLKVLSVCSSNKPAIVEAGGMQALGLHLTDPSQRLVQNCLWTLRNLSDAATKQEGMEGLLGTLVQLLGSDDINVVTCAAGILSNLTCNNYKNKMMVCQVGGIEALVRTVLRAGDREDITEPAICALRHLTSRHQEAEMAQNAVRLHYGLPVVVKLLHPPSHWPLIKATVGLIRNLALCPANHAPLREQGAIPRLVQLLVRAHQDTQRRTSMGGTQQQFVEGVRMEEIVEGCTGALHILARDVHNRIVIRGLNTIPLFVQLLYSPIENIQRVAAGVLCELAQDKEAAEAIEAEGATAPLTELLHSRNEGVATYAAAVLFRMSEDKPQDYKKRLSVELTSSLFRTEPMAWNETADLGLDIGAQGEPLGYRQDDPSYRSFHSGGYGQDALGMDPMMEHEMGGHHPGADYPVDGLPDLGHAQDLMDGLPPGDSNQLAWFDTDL

Binder | NanoBRET Abs IC50 [nM]
B1 | 2500
Ac-[αAllylPro]D[tBuAla][B5(4)]D[Phe(3-COOH)][Aib]AF[Nle][PyrS2″][3Thi][Bta][(NMe2)GlnR(3)]-NH2 (staple 1-4, 4-11) [I-2551] | 9800
Ac-[αAllylPro]D[tBuAla][B5(4)]D[Phe(3-COOH)][Aib]AF[Nle][PyrS2″][3Thi][Bta][(NHEt)GlnR]-NH2 (staple 1-4, 4-11) [I-2552] | 10400
B2 | 3600
B3 | 3500

biological target: T2, full-length beta-Catenin (Uniprot ID P35222) (Homo sapiens (Human), UniProt P35222 1-781); assay: fluorescence polarization competition; full-length beta-catenin with 5FAM-labeled TCF4 residues 10-53 probe as competitor
T2 construct: also called bCat; B-Catenin
T2 sequence: T1 sequence (looked up)
Method: The plate was incubated protected from light for 60 minutes at 20° C. prior to read. Reads were performed on a CLARIOstar plate reader (BMG Labtech) in duplicate, and data were fitted to a 1:1 binding model with hill slope using an in-house script. All provided concentrations are final concentrations.

Binder | IC50 [nM]
Ac-[αAllylPro]DA[B5(21)][(NHiPr)AsnR]DAAFV[S8]F[Bta]Q-NH2 (staple 1-4, 4-11) [I-535] | 5000
Ac-[αAllylPro]DA[B5(21)][(NHEt)AsnR]DAAFV[S8]F[Bta]Q-NH2 (staple 1-4, 4-11) [I-536] | 4470
Ac-[αAllylPro]DA[B5(21)][(NHnPr)AsnR]DAAFV[S8]F[Bta]Q-NH2 (staple 1-4, 4-11) [I-537] | 5000
B4 | 71
B5 | 61
B6 | 43
B7 | 34
Ac-[αAllylPro]DL[B5(5)]DDAAFN[S8]F[Bta]Q-NH2 (staple 1-4, 4-11) [I-562] | 51
Ac-[αAllylPro]DL[B5(5)]DDAAFQ[S8]F[Bta]H-NH2 (staple 1-4, 4-11) [I-560] | 81
B8 | 27.5
B9 | 56
Ac-[αAllylPro]DA[B5(21)][(NHCyPr)AsnR]DAAFV[S8]F[Bta]Q-NH2 (staple 1-4, 4-11) [I-538] | 5000
